Source: doi:10.1101/2025.02.07.637128 (bioRxiv, 2025)
Several values for one entry are separate records, joined by “and”; a condition that tells them apart may be missing. Identical values can stand only once.

B1: Pneumolysin (PLY) toxin (natural protein)
chain: MANKAVNDFILAMNYDKKKLLTHQGESIENRFIKEGNQLPDEFVVIERKKRSLSTNTSDISVTATNDSRLYPGALLVVDETLLENNPTLLAVDRAPMTYSIDLPGLASSDSFLQVEDPSNSSVRGAVNDLLAKWHQDYGQVNNVPARMQYEKITAHSMEQLKVKFGSDFEKTGNSLDIDFNSVHSGEKQIQIVNFKQIYYTVSVDAVKNPGDVFQDTVTVEDLKQRGISAERPLVYISSVAYGRQVYLKLETTSKSDEVEAAFEALIKGVKVAPQTEWKQILDNTEVKAVILGGDPSSGARVVTGKVDMVEDLIQEGSRFTADHPGLPISYTTSFLRDNVVATFQNSTDYVETKVTAYRNGDLLLDHSGAYVAQYYITWDELSYDHQGKEVLTPKAWDRNGQDLTAHFTTSIPLKGNVRNLSVKIRECTGLAWEWWRTVYEKTDLPLVRKRTISIWGTTLYPQVEDKVEND

Legend:
Concanavalin A = assay: resistive pulse sensing with PLY nanopores
[1] = molecular target: the molecule itself

Molecule	stoichiometry N (Concanavalin A)	stoichiometry N [1] [monomers]
Concanavalin A (natural protein)	2 and 4	–
B1	–	35 ± 2
